# Results published in paper doi:10.1101/537159 (bioRxiv, 2019).
# Assays:
# [1] = biological target: D382Y human β-cardiac myosin 2-hep HMM (human, UniProt P12883 1-855; P08590 1-195; P10916 1-166, D382Y); assay: MST
# [2] = biological target: R719W human β-cardiac myosin 2-hep HMM (human, UniProt P12883 1-855; P08590 1-195; P10916 1-166, R719W); assay: MST
# R719W human β-cardiac myosin 2-hep HMM, sequence (P12883 1-855 R719W, chain 1 of 3): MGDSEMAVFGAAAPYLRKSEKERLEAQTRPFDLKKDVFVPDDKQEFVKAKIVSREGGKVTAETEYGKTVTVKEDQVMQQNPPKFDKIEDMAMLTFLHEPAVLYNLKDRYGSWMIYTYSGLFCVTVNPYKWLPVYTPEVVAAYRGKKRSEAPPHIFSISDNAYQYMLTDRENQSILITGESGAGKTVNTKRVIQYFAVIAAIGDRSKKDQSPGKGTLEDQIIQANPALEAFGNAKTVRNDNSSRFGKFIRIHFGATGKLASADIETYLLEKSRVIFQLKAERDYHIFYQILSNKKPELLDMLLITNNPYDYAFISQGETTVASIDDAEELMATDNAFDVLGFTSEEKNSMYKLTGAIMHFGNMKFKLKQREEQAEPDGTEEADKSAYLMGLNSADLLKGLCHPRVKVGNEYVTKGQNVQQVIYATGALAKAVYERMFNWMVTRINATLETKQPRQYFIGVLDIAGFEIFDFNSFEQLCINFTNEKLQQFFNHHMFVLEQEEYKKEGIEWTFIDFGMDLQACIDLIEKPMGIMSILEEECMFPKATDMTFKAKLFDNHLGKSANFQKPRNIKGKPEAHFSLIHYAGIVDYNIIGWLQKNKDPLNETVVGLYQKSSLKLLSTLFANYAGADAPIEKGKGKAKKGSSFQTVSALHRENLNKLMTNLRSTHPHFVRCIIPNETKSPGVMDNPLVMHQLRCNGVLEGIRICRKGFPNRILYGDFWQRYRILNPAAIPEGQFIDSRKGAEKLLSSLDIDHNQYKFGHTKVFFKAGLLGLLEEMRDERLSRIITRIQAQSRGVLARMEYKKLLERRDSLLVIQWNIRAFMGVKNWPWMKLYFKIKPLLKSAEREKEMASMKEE
# R719W human β-cardiac myosin 2-hep HMM, sequence (P08590 whole entry, chain 2 of 3): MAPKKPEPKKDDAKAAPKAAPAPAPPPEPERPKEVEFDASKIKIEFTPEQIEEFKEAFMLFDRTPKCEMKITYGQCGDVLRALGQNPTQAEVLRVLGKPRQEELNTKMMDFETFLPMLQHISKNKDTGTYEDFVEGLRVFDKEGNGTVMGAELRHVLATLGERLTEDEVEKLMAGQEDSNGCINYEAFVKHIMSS
# R719W human β-cardiac myosin 2-hep HMM, sequence (P10916 whole entry, chain 3 of 3): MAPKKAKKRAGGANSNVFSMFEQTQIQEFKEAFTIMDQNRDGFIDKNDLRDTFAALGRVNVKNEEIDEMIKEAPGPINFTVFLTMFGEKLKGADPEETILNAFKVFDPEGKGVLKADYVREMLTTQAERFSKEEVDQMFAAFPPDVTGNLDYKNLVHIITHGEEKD
# D382Y human β-cardiac myosin 2-hep HMM, sequence (P12883 1-855 D382Y, chain 1 of 3): as the sequence (P12883 1-855 R719W, chain 1 of 3) above, with D382Y, W719R counted along it
# D382Y human β-cardiac myosin 2-hep HMM, sequence (P08590 whole entry, chain 2 of 3): as the sequence (P08590 whole entry, chain 2 of 3) above
# D382Y human β-cardiac myosin 2-hep HMM, sequence (P10916 whole entry, chain 3 of 3): as the sequence (P10916 whole entry, chain 3 of 3) above
binder,measurement,setting,value
"proximal S2 (amino acids 839-968) (domain or fragment, human, UniProt P12883 839-968, looked up) LLKSAEREKEMASMKEEFTRLKEALEKSEARRKELEEKMVSLLQEKNDLQLQVQAEQDNLADAEERCDQLIKNKIQLEAKVKEMNERLEDEEEMNAELTAKKRKLEDECSELKRDIDDLELTLAKVEKEK",fold change of affinity against WT 2-hep HMM,[1],< 2 fold
same,fold change of affinity against WT 2-hep HMM,[2],< 2 fold
